Target: human insulin (disulfide-bonded heterodimer), P01308
Sequence (P01308 whole entry, looked up, one chain of several): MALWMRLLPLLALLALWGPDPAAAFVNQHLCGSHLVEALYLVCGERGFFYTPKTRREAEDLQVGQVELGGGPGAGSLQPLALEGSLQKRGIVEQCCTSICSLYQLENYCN

Protein	disulfide reduction activity by RP-HPLC (main HIC fraction after drying and reconstitution in saline)	conversion of insulin heterodimer peak (RP-HPLC insulin reduction, 0.025 mM ORP-100, pH 6, 60 min)
ORP100S (fully monocysteinic human thioredoxin-1, reduced form) (protein) VKQIESKTAFQEALDAAGDKLVVVDFSATWCGPSKMIKPFFHSLSEKYSNVIFLEVDVDDSQDVASESEVKSMPTFQFFKKGQKVGEFSGANKEKLEATINELV	the main fraction showed comparable disulfide reduction activity by DTNB and RP-HPLC to thioredoxin compositions purified without removing the red fraction	–
ORP-100 (C35S monocysteinic active site thioredoxin) (protein) VKQIESKTAFQEALDAAGDKLVVVDFSATWCGPSKMIKPFFHSLSEKYSNVIFLEVDVDDCQDVASECEVKCMPTFQFFKKGQKVGEFSGANKEKLEATINELV	–	even at acidic pH 6 ORP-100 is able to markedly reduce the insulin heterodimer peak, and at 1/500 the concentration of NAC

From US20230071765
